Assay results reported in publication PMC3507621.

T1: inter-α-trypsin inhibitor (IαI), P19827;P19823
T1 chain 1: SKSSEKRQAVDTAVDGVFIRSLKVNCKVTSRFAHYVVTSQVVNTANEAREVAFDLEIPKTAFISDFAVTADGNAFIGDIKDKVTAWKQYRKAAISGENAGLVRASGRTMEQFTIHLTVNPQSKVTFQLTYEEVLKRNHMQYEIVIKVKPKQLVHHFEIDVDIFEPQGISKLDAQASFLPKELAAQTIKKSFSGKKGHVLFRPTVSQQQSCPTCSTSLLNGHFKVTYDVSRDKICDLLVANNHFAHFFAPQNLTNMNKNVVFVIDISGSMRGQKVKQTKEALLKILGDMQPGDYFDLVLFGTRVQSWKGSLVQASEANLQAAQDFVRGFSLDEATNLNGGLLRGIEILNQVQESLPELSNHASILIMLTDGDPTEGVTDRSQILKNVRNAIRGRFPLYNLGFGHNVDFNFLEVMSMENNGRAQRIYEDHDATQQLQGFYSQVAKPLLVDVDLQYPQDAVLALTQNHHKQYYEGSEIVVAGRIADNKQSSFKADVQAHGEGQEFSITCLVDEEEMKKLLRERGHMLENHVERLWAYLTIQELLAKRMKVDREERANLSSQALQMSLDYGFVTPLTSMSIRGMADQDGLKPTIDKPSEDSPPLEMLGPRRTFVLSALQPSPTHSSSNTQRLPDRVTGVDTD
T1 chain 2: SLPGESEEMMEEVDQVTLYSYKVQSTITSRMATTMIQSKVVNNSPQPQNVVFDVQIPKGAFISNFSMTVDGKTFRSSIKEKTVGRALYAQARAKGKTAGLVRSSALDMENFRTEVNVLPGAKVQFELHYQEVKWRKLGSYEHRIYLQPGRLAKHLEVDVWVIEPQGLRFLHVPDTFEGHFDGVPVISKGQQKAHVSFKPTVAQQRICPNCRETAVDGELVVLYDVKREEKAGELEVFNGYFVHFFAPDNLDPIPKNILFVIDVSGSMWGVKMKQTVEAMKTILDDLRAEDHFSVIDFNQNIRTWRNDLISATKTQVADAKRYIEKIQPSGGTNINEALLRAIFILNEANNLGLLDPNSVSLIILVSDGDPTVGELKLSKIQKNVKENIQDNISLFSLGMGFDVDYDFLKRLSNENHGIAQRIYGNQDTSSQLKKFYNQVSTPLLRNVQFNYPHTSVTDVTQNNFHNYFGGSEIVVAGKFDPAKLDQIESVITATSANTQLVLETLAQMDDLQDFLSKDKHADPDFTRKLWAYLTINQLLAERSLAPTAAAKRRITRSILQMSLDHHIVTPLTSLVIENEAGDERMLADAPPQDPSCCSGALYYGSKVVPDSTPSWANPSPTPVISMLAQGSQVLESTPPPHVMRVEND
T1 chain 3: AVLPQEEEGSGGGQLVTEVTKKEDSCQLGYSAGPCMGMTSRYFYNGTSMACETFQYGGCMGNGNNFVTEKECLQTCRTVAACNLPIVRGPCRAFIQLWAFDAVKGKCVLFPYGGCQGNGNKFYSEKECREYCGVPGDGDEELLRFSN


Columns and labels:
[1] = molecular target: T1, inter-α-trypsin inhibitor (IαI), …; assay: ELISA; conditions: chain shown with the change, pH 7.4, PBS with Ca2+ and Mg2+, read off a plot
[2] = molecular target: T1, inter-α-trypsin inhibitor (IαI), …; assay: competition ELISA (bPTX3 detected with HRP-conjugated streptavidin); conditions: chain shown with the change, wells coated with IαI, read off a plot
[3] = IαI 100 nM (est. from x axis), parent: est. 2.6
[4] = IαI about 1.7 nM (est. from x axis), parent: est. 1.0
[5] = IαI about 6 nM (est. from x axis), parent: est. 2.2
[6] = IαI about 46 nM (est. from x axis), parent: est. 2.7
[7] = IαI about 13 nM (est. from x axis), parent: est. 2.5

Row | Binder | response [1, 3] | response [1, 4] | response [1, 5] | response [1, 6] | other: bPTX3 bound to IαI (% of bPTX3 binding in the absence of competitors) ([2]; competitor about 0.24 nM (est. from x axis), parent: est. 99) | other: bPTX3 bound to IαI (% of bPTX3 binding in the absence of competitors) ([2]; competitor about 2.5 nM (est. from x axis), parent: est. 98) | other: bPTX3 bound to IαI (% of bPTX3 binding in the absence of competitors) ([2]; competitor about 24 nM (est. from x axis), parent: est. 80) | other: bPTX3 bound to IαI (% of bPTX3 binding in the absence of competitors) ([2]; competitor about 240 nM (est. from x axis), parent: est. 38) | other: bPTX3 bound to IαI (% of bPTX3 binding in the absence of competitors) ([2]; competitor about 2400 nM (est. from x axis), parent: est. 11) | response [1, 7]
1 | wild type recombinant N-terminal region of PTX3 (N_PTX3), P26022 C47S; C49S; C103S (protein) ENSDDYDLMYVNLDNEIDNGLHPTEDPTPSASGQEHSEWDKLFIMLENSQMRERMLLQATDDVLRGELQRLREELGRLAESLARPSAPGAPAEARLTSALDELLQATRDAGRRLARMEGAEAQRPEEAGRALAAVLEELRQTRADLHAVQGWATG | 2.6 O.D. (450nm) | 0.45 O.D. (450nm) | 1.3 O.D. (450nm) | 2.5 O.D. (450nm) | 99% | 96% | 82% | 59% | 30% | 
2 | wild type recombinant N-terminal region of PTX3 (N_PTX3), P26022 C47S; C49S (protein) ENSDDYDLMYVNLDNEIDNGLHPTEDPTPSASGQEHSEWDKLFIMLENSQMRERMLLQATDDVLRGELQRLREELGRLAESLARPCAPGAPAEARLTSALDELLQATRDAGRRLARMEGAEAQRPEEAGRALAAVLEELRQTRADLHAVQGWATG | 2.6 O.D. (450nm) | 0.24 O.D. (450nm) | 0.86 O.D. (450nm) | 2.4 O.D. (450nm) |  |  |  |  |  | 1.4 O.D. (450nm)
3 | wild type recombinant N-terminal region of PTX3 (N_PTX3), P26022 C103S (protein) ENSDDYDLMYVNLDNEIDNGLHPTEDPTPCACGQEHSEWDKLFIMLENSQMRERMLLQATDDVLRGELQRLREELGRLAESLARPSAPGAPAEARLTSALDELLQATRDAGRRLARMEGAEAQRPEEAGRALAAVLEELRQTRADLHAVQGWATG | 2.6 O.D. (450nm) | 0.28 O.D. (450nm) | 1.1 O.D. (450nm) | 2.5 O.D. (450nm) |  |  |  |  |  | 1.7 O.D. (450nm)
